Laboratory results taken from PMC9893541 (BMC Biology, 2023).

B1: GDF5 homodimer (ligand, human, UniProt P43026 382-501, looked up)
chain: APLATRQGKRPSKNLKARCSRKALHVNFKDMGWDDWIIAPLEYEAFHCEGLCEFPLRSHLEPTNHAVIQTLMNSMDPESTPPTCCVPTRLSPISILFIDSANNVVYKQYEDMVVESCGCR
notes: Growth and Differentiation Factor 5 (GDF5), mature domain; Dimer stabilised by an inter-chain disulfide bond; also called homodimeric GDF5; Growth and Differentiation Factor 5
B3: FC-(ActRIIb)2 (Fc fusion, UniProt Q13705-1 19-137, looked up)
chain: SGRGEAETRECIYYNANWELERTNQSGLERCEGEQDKRLHCYASWRNSSGTIELVKKGCWLDDFNCYDRQECVATEENPQVYFCCCEGNFCNERFTHLPEAGGPEVTYEPPPTAPTLLT
notes: type 2 receptor ActRIIb (ACVR2B) in a recombinant chimeric Fc-receptor; also called (ActRIIB)2-Fc; source: bought: R&D (Cat# 339-RB-100/CF)
B5: FC-(BMPR2)2 (Fc fusion, UniProt Q13873 27-150, looked up)
chain: SQNQERLCAFKDPYQQDLGIGESRISHENGTILCSKGSTCYGLWEKSKGDINLVKQGCWSHIGDPQECHYEECVVTTTPPSIQNGTYRFCCCSTDLCNVNFTENFPPPDTTPLSPPHSFNRDET
notes: type 2 receptor BMPR2 in a recombinant chimeric Fc-receptor; source: bought: R&D (Cat# 811-BR-100)
B7: mature GDF5 (single chain) (natural protein, human, UniProt P43026 382-501, looked up)
chain: APLATRQGKRPSKNLKARCSRKALHVNFKDMGWDDWIIAPLEYEAFHCEGLCEFPLRSHLEPTNHAVIQTLMNSMDPESTPPTCCVPTRLSPISILFIDSANNVVYKQYEDMVVESCGCR
notes: Growth and Differentiation Factor 5 (GDF5), mature domain; The single chain before dimerisation; used for the rows on dimer formation; also called GDF5 monomer; GDF5 chain; source: E. coli Rosetta (DE3), inclusion bodies, solubilised in urea, clarified (minimum 90 % purity)
B10: FC-(Alk3)2 (Fc fusion, UniProt P36894 24-152, looked up)
chain: QNLDSMLHGTGMKSDSDQKKSENGVTLAPEDTLPFLKCYCSGHCPDDAINNTCITNGHCFAIIEEDDQGETTLASGCMKYEGSDFQCKDSPKAQLRRTIECCRTNLCNQYLQPTLPPVVIGPFFDGSIR
notes: type 1 receptor Alk3 (BMPR1A) in a recombinant chimeric Fc-receptor; also called chimeric FC-receptor; source: bought: R&D (Cat# 315-BR-100/CF)

Experiments:
FC-(Alk3)2 = molecular target: B10; assay: SPR; BIAcore T-200; chimeric Fc-type 1 receptor coupled to a Series S Protein A chip; ligands 6.25-0.049 nM flowed at 50 uL/min, 300 s association, 1000 s dissociation; 20 mM HEPES pH 7.4, 350 mM NaCl, 0.005 % P-20, 0.5 mg/mL BSA, 3.4 mM EDTA; kinetic 1:1 fit (also a bivalent fit); apparent KD = kd/ka; average of N=2; settings: both partners purified
FC-(BMPR2)2 = molecular target: B5; assay: SPR; chimeric Fc-type 2 receptor coupled to a Series S Protein A chip; ligands 100-0.198 nM in SPR buffer, 300 s association, 1000 s dissociation; steady-state analysis; apparent affinities; average of N=2; settings: both partners purified
FC-(ActRIIb)2 = molecular target: B3; assay: as above; settings: both partners purified
BMP4/GDF5 heterodimer [1] = molecular target: T1, BMP4/GDF5 heterodimer (human, UniProt P12644 293-408; P43026 382-501); assay: as above; settings: both partners purified
T1 construct: additional Met residue on the N-terminus of the BMP4 construct; bone morphogenetic protein 4 (BMP4), mature domain; Growth and Differentiation Factor 5 (GDF5), mature domain; Made by people from two natural mature chains; disulfide-linked dimer; also called GDF5/BMP4; copies: 1 + 1
T1 sequence 1: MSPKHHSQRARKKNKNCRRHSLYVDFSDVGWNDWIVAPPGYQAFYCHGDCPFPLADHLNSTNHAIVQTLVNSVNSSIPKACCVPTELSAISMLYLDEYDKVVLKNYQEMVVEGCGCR
T1 sequence 2: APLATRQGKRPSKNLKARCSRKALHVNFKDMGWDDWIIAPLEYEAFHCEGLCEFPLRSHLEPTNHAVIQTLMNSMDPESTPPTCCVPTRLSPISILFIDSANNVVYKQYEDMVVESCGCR

GDF5 homodimer = molecular target: B1; assay: as above; settings: both partners purified
BMP2/GDF5 heterodimer = molecular target: T2, BMP2/GDF5 heterodimer (human, UniProt P12643 283-396; P43026 382-501); assay: as above; settings: both partners purified
T2 construct: bone morphogenetic protein 2 (BMP2), mature domain; Growth and Differentiation Factor 5 (GDF5), mature domain; Made by people from two natural mature chains; disulfide-linked dimer; also called GDF5/BMP2; WT heterodimer; copies: 1 + 1

FC-(Alk6)2 = molecular target: T3, FC-(Alk6)2 (UniProt O00238 14-126); assay: SPR; BIAcore T-200; chimeric Fc-type 1 receptor coupled to a Series S Protein A chip; ligands 6.25-0.049 nM flowed at 50 uL/min, 300 s association, 1000 s dissociation; 20 mM HEPES pH 7.4, 350 mM NaCl, 0.005 % P-20, 0.5 mg/mL BSA, 3.4 mM EDTA; kinetic 1:1 fit (also a bivalent fit); apparent KD = kd/ka; average of N=2; settings: both partners purified
T3 construct: type 1 receptor Alk6 (BMPR1B) in a recombinant chimeric Fc-receptor; also called chimeric FC-receptor; source: bought: R&D (Cat# 505-PR-100)
T3 sequence (looked up): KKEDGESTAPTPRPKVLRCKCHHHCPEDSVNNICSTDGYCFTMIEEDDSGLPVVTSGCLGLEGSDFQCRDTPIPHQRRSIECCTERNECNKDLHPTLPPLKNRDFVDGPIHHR

[2] = molecular target: the molecule itself; assay: oxidative refolding of mixed chains, heparin affinity chromatography, SDS-PAGE and Western blot (reducing and non-reducing), MALDI-TOF mass spectrometry; solubilised inclusion bodies mixed in a 1:1 molar ratio, refolded 5 days in 0.1 M Tris pH 8.5, 0.5 M L-arginine, 0.3 % CHAPS, 150 mM NaCl, 1 mM reduced and 1 mM oxidized glutathione, 1 mM EDTA; heparin column eluted with 150-650 mM NaCl; disulfide-linked dimers
[3] = molecular target: B7; assay: as above; settings: both partners purified
BMP4/GDF5 heterodimer [4] = molecular target: T1, BMP4/GDF5 heterodimer; assay: SPR; BIAcore T-200; chimeric Fc-type 1 receptor coupled to a Series S Protein A chip; ligands 6.25-0.049 nM flowed at 50 uL/min, 300 s association, 1000 s dissociation; 20 mM HEPES pH 7.4, 350 mM NaCl, 0.005 % P-20, 0.5 mg/mL BSA, 3.4 mM EDTA; kinetic 1:1 fit (also a bivalent fit); apparent KD = kd/ka; average of N=2; settings: both partners purified

Work on B1 yielded a Kd (FC-(Alk3)2) of 0.328 nM.

B2: BMP4 homodimer (ligand, human)
chain: MSPKHHSQRARKKNKNCRRHSLYVDFSDVGWNDWIVAPPGYQAFYCHGDCPFPLADHLNSTNHAIVQTLVNSVNSSIPKACCVPTELSAISMLYLDEYDKVVLKNYQEMVVEGCGCR
notes: additional Met residue on the N-terminus of the BMP4 construct; bone morphogenetic protein 4 (BMP4), mature domain; Dimer stabilised by an inter-chain disulfide bond; also called homodimeric BMP4
For B2, the Kd (FC-(Alk3)2) was 0.072 nM, the binding result (FC-(BMPR2)2) was “binds” and the binding result (FC-(ActRIIb)2) was “binds”.

B3: binds (BMP4/GDF5 heterodimer [1]); binds (GDF5 homodimer); binds (BMP2/GDF5 heterodimer).

B4: BMP2_L333P/GDF5 heterodimer (complex, human)
chain 1: QAKHKQRKRLKSSCKRHPLYVDFSDVGWNDWIVAPPGYHAFYCHGECPFPPADHLNSTNHAIVQTLVNSVNSKIPKACCVPTELSAISMLYLDENEKVVLKNYQDMVVEGCGCR
chain 2: APLATRQGKRPSKNLKARCSRKALHVNFKDMGWDDWIIAPLEYEAFHCEGLCEFPLRSHLEPTNHAVIQTLMNSMDPESTPPTCCVPTRLSPISILFIDSANNVVYKQYEDMVVESCGCR
notes: bone morphogenetic protein 2 (BMP2), mature domain, with L333P; Growth and Differentiation Factor 5 (GDF5), mature domain, wild type; Predicted by the authors to have one disrupted type 1 site (GFBW) and one functional site (BFGW); also called mutant heterodimer; copies: 1 + 1
For B4, the “fold decrease in KD (so in the source) against WT GDF5 homodimer” value (FC-(Alk6)2) was ~5 fold.

B5: binds (BMP4/GDF5 heterodimer [1]); binds (BMP2/GDF5 heterodimer).

B6: mature BMP2 (single chain) (natural protein, human, UniProt P12643 283-396, looked up)
chain: QAKHKQRKRLKSSCKRHPLYVDFSDVGWNDWIVAPPGYHAFYCHGECPFPLADHLNSTNHAIVQTLVNSVNSKIPKACCVPTELSAISMLYLDENEKVVLKNYQDMVVEGCGCR
notes: bone morphogenetic protein 2 (BMP2), mature domain; The single chain before dimerisation; used for the rows on dimer formation; also called BMP2 monomer; BMP2 chain; source: E. coli Rosetta (DE3), inclusion bodies, solubilised in urea, clarified (minimum 90 % purity)
B6: binds [2]; binds [3].

B7: binds [2].

B8: mature BMP4 (single chain) (natural protein, human)
chain: MSPKHHSQRARKKNKNCRRHSLYVDFSDVGWNDWIVAPPGYQAFYCHGDCPFPLADHLNSTNHAIVQTLVNSVNSSIPKACCVPTELSAISMLYLDEYDKVVLKNYQEMVVEGCGCR
notes: additional Met residue on the N-terminus of the BMP4 construct; bone morphogenetic protein 4 (BMP4), mature domain; The single chain before dimerisation; used for the rows on dimer formation; also called BMP4 monomer; monomeric BMP4; source: E. coli Rosetta (DE3), inclusion bodies, solubilised in urea, clarified (minimum 90 % purity)
B8: binds [2]; binds [3].

B9: mature BMP2 L333P (single chain) (natural protein, human, UniProt P12643 283-396, looked up)
chain: QAKHKQRKRLKSSCKRHPLYVDFSDVGWNDWIVAPPGYHAFYCHGECPFPPADHLNSTNHAIVQTLVNSVNSKIPKACCVPTELSAISMLYLDENEKVVLKNYQDMVVEGCGCR
notes: bone morphogenetic protein 2 (BMP2), mature domain, with L333P; The single chain before dimerisation; used for the rows on dimer formation; also called L333P BMP2; source: E. coli Rosetta (DE3), inclusion bodies, solubilised in urea
B9: binds [2]; binds [3].

Binder B10 has a Kd (BMP4/GDF5 heterodimer [4]) of 0.029 nM.
